Biological target: CS1 on MM.1S multiple myeloma cells (human, UniProt Q9NQ25 23-335)
Experiment: cell-based or functional assay

B1: CS1-dbBiTE (anti-CS1-huOKT3 dual specific bivalent T-cell engager: intact elotuzumab clicked to intact humanized OKT3 at their reduced hinge regions) (bispecific antibody, human IgG1, kappa)
heavy: not shown
light: DIQMTQSPSSLSASVGDRVTITCKASQDVGIAVAWYQQKPGKVPKLLIYWASTRHTGVPDRFSGSGSGTDFTLTISSLQPEDVATYYCQQYSSYPYTFGQGTKVEIKRTVAAPSVFIFPPSDEQLKSGTASVVCLLNNFYPREAKVQWKVDNALQSGNSQESVTEQDSKDSTYSLSSTLTLSKADYEKHKVYACEVTHQGLSSPVTKSFNRGEC
VH: QLVQSGGGVVQPGRSLRLSCKASGYTFTRYTMHWVRQAPGKGLEWIGYINPSRGYTNYNQKVKDRFTISTDKSKSTAFLQMDSLRPEDTAVYYCARYYDDHYCLDYWGQGTPVTV
VL: DIQMTQSPSSLSASVGDRVTITCSASSSVSYMNWYQQTPGKAPKRWIYDTSKLASGVPSRFSGSGSGTDYTFTISSLQPEDIATYYCQQWSSNPFTFGQGTKLQITR
modifications: one PEG5-N3 per light chain; reduced cysteines of the heavy chain alkylated with bromoacetamide-PEG5-N3, an average of 3 PEG5-N3/heavy chain; one DBCO/light chain (bromoacetamido-DBCO on reduced cysteine); reduced cysteines alkylated with bromoacetamido-DBCO, an average of 3 DBCO/heavy chain; clicked to PEG5-N3 on huOKT3
  IFN-γ and TNF-α positive cells detected by intracellular cytokine staining: > 2 fold

Reference: patent US20250074982A1 (CITY OF HOPE, published 2025)
